From the RNAGym collection of RNA variant scans (doi:10.1093/molbev/msab373)

B1: Azoarcus group I ribozyme (parent)
chain: GUGCCUUGCGCCGGGAAACCACGCAAGGGAUGGUGUCAAAUUCGGCGAAACCUAAGCGCCCGCCCGGGCGUAUGGCAACGCCGAGCCAAGCUUCGGCGCCUGCGCCGAUGAAGGUGUAGAGACUAGACGGCACCCACCUAAGGCAAACGCUAUGGUGAAGGCAUAGUCCAGGGAGUGGCGAAAGUCACACAAACCGG

Variants of: B1
Assay: reverse-splicing fitness (ratio to wild type); higher = more active; in vitro selection; Mg2+ level not given
Outline: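 An in vitro group I ribozyme library with randomized positions was T7-transcribed and gel-purified. In triplicate, 10 pmol RNA in EPPS pH 7.5 was reacted with 50 pmoles of a 30-nt RNA substrate for 1 h at 37 °C across several added MgCl2 levels (1–48 mM), then stopped with EDTA. Products were reverse transcribed from a substrate-complementary primer, PCR-amplified and sequenced (HiSeq 4000). Fitness is a variant's read proportion after selection over that before, normalised to wild type.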

| Variant | reverse-splicing fitness |
| --- | --- |
| GUGCCUUGCGCCGGGAAACCACGCAAGGGAUGGUGUCAAAUUCGGCGAAACCUAAGCGCCCGCCCGGGCGUAUGGCAACGCCGAGCCAAGCUUCGGCGCCUGCGCCGAUGAAGGUGUAGCGACUAGACGGCACCCACCUAAGGCAAACGCUAUGGUGAAGGCAUAGUCGAGGGAGUGGCGAAAGUCACACAAACCGG | 0.029 |
| GUGCCUUGCGCCGGGAAACCACGCAAGGGAUGGUGUCAAAUUCGGCGAAACCUAAGCGCCCGCCCGGGCGUAUGGCAACGCCGAGCCAAGCUUCGGCGCCUGCGCCGAUGAAGGUGUAGCGACUAGACGGCACCCACCUAAGGCAAACGCUAUGGUGAAGGCAUAGUCGAGGGAGAGGCGAAAGUCACACAAACCGG | 0.016 |
| GUGCCUUGCGCCGGGAAACCACGCAAGGGAUGGUGUCAAAUUCGGCGAAACCUAAGCGCCCGCCCGGGCGUAUGGCAACGCCGAGCCAAGCUUCGGCGCCUGCGCCGAUGAAGGUGUAGCGACUAGACGGCACCCACCUAAGGCAAACGCUAUGGUGAAGGCAUAGUCGAGGGAGCGGCGAAAGUCACACAAACCGG | 0.0166 |
| GUGCCUUGCGCCGGGAAACCACGCAAGGGAUGGUGUCAAAUUCGGCGAAACCUAAGCGCCCGCCCGGGCGUAUGGCAACGCCGAGCCAAGCUUCGGCGCCUGCGCCGAUGAAGGUGUAGCGACUAGACGGCACCCACCUAAGGCAAACGCUAUGGUGAAGGCAUAGUCGAGGGAGGGGCGAAAGUCACACAAACCGG | 0.0039 |
| GUGCCUUGCGCCGGGAAACCACGCAAGGGAUGGUGUCAAAUUCGGCGAAACCUAAGCGCCCGCCCGGGCGUAUGGCAACGCCGAGCCAAGCUUCGGCGCCUGCGCCGAUGAAGGUGUAGCGACUAGACGGCACCCACCUAAGGCAAACGCUAUGGUGAAGGCAUAGUCUAGGGAGUGGCGAAAGUCACACAAACCGG | 0.435 |
| GUGCCUUGCGCCGGGAAACCACGCAAGGGAUGGUGUCAAAUUCGGCGAAACCUAAGCGCCCGCCCGGGCGUAUGGCAACGCCGAGCCAAGCUUCGGCGCCUGCGCCGAUGAAGGUGUAGCGACUAGACGGCACCCACCUAAGGCAAACGCUAUGGUGAAGGCAUAGUCUAGGGAGAGGCGAAAGUCACACAAACCGG | 0.155 |
| GUGCCUUGCGCCGGGAAACCACGCAAGGGAUGGUGUCAAAUUCGGCGAAACCUAAGCGCCCGCCCGGGCGUAUGGCAACGCCGAGCCAAGCUUCGGCGCCUGCGCCGAUGAAGGUGUAGCGACUAGACGGCACCCACCUAAGGCAAACGCUAUGGUGAAGGCAUAGUCUAGGGAGCGGCGAAAGUCACACAAACCGG | 0.174 |
| GUGCCUUGCGCCGGGAAACCACGCAAGGGAUGGUGUCAAAUUCGGCGAAACCUAAGCGCCCGCCCGGGCGUAUGGCAACGCCGAGCCAAGCUUCGGCGCCUGCGCCGAUGAAGGUGUAGCGACUAGACGGCACCCACCUAAGGCAAACGCUAUGGUGAAGGCAUAGUCUAGGGAGGGGCGAAAGUCACACAAACCGG | 0.0174 |
| GUGCCUUGCGCCGGGAAACCACGCAAGGGAUGGUGUCAAAUUCGGCGAAACCUAAGCGCCCGCCCGGGCGUAUGGCAACGCCGAGCCAAGCUUCGGCGCCUGCGCCGAUGAAGGUGUAGCGACUAGACGGCACCCACCUAAGGCAAACGCUAUGGUGAAGGCAUAGUCCAGGGAGAGGCGAAAGUCACACAAACCGG | 0.663 |
| GUGCCUUGCGCCGGGAAACCACGCAAGGGAUGGUGUCAAAUUCGGCGAAACCUAAGCGCCCGCCCGGGCGUAUGGCAACGCCGAGCCAAGCUUCGGCGCCUGCGCCGAUGAAGGUGUAGCGACUAGACGGCACCCACCUAAGGCAAACGCUAUGGUGAAGGCAUAGUCCAGGGAGCGGCGAAAGUCACACAAACCGG | 0.714 |
| GUGCCUUGCGCCGGGAAACCACGCAAGGGAUGGUGUCAAAUUCGGCGAAACCUAAGCGCCCGCCCGGGCGUAUGGCAACGCCGAGCCAAGCUUCGGCGCCUGCGCCGAUGAAGGUGUAGCGACUAGACGGCACCCACCUAAGGCAAACGCUAUGGUGAAGGCAUAGUCCAGGGAGGGGCGAAAGUCACACAAACCGG | 0.244 |
| GUGCCUUGCGCCGGGAAACCACGCAAGGGAUGGUGUCAAAUUCGGCGAAACCUAAGCGCCCGCCCGGGCGUAUGGCAACGCCGAGCCAAGCUUCGGCGCCUGCGCCGAUGAAGGUGUAGGGACUAGACGGCACCCACCUAAGGCAAACGCUAUGGUGAAGGCAUAGUCCAGGGAGUGGCGAAAGUCACACAAACCGG | 0.549 |
| GUGCCUUGCGCCGGGAAACCACGCAAGGGAUGGUGUCAAAUUCGGCGAAACCUAAGCGCCCGCCCGGGCGUAUGGCAACGCCGAGCCAAGCUUCGGCGCCUGCGCCGAUGAAGGUGUAGGGACUAGACGGCACCCACCUAAGGCCAACGCUAUGGUGAAGGCAUAGUCCAGGGAGUGGCGAAAGUCACACAAACCGG | 0.479 |
| GUGCCUUGCGCCGGGAAACCACGCAAGGGAUGGUGUCAAAUUCGGCGAAACCUAAGCGCCCGCCCGGGCGUAUGGCAACGCCGAGCCAAGCUUCGGCGCCUGCGCCGAUGAAGGUGUAGGGACUAGACGGCACCCACCUAAGGCCAACGAUAUGGUGAAGGCAUAGUCCAGGGAGUGGCGAAAGUCACACAAACCGG | 0.0374 |
| GUGCCUUGCGCCGGGAAACCACGCAAGGGAUGGUGUCAAAUUCGGCGAAACCUAAGCGCCCGCCCGGGCGUAUGGCAACGCCGAGCCAAGCUUCGGCGCCUGCGCCGAUGAAGGUGUAGGGACUAGACGGCACCCACCUAAGGCCAACGAUAUGGUGAAGGCAUAGUCAAGGGAGUGGCGAAAGUCACACAAACCGG | 0.029 |
